“And” between values parts separate entries of the source, which are not always exact repeats. Identical values can stand only once.

This experiment deals with Angiotensin-I Converting Enzyme (ACE). The experiment is described as follows: cell-based or functional assay.
Consider Egg yolk/Alcalase hydrolysate, for which the ACE inhibition (% inhibition) at 0.5 mg/ml is 68% and 76% and 61%; the inhibition (%) at 0.0625 mg/ml was 30.9% and 6.5%; the inhibition (%) at 0.125 mg/ml was 45.7% and 25.1%; the inhibition (%) at 0.25 mg/ml is 59.1% and 41.9%. Moreover, the inhibition (%) at 0.5 mg/ml is 75.8% and 61%; the inhibition (%) at 2 mg/ml came to 100%.
For the substance Egg yolk/Newlase F hydrolysate, the ACE inhibition (% inhibition) at 0.5 mg/ml is 57% and 51%; the inhibition (%) at 0.0625 mg/ml is 15.5% and 21.6%; the inhibition (%) at 0.125 mg/ml was 21.7% and 18.2%; the inhibition (%) at 0.25 mg/ml was 24.1% and 36.1%. Further, the inhibition (%) at 0.5 mg/ml is 51.3% and 57.3%; the inhibition (%) at 1 mg/ml is 69.5% and 80%.
Consider Egg yolk/PEM hydrolysate, for which the ACE inhibition (% inhibition) at 0.5 mg/ml was 58% and 62% and 53%; the inhibition (%) at 0.0625 mg/ml was 15.4% and 25.4%; the inhibition (%) at 0.125 mg/ml was 28.8% and 52.8%; the inhibition (%) at 0.25 mg/ml was 45.3% and 36.6%. The inhibition (%) at 0.5 mg/ml is 62.1% and 52.9%; the inhibition (%) at 1 mg/ml is 69.8% and 64.6%; the inhibition (%) at 2 mg/ml was 99.7% and 96.6%.
Turning to Egg yolk/PTN hydrolysate, the inhibition (%) at 0.25 mg/ml was 27.6% and 44.3%; the inhibition (%) at 1 mg/ml is 75.7% and 59.9%; the inhibition (%) at 2 mg/ml was 96.9% and 78.1%.
Consider Egg yolk/Protex 6L hydrolysate, for which the inhibition (%) at 0.0625 mg/ml was 15% and 22.4%; the inhibition (%) at 0.125 mg/ml was 26.6% and 37%; the inhibition (%) at 0.25 mg/ml was 41.3% and 62.7%; the inhibition (%) at 2 mg/ml is 105% and 89.9%.
Take EggWhite 1101/Alcalase hydrolysate: the inhibition (%) at 0.0625 mg/ml is 19.6% and 10.7%; the inhibition (%) at 0.125 mg/ml is 34.2% and 12.8%; the inhibition (%) at 0.25 mg/ml is 46.5% and 32.1%; the inhibition (%) at 0.5 mg/ml is 63.1% and 39.9%. Further, the inhibition (%) at 1 mg/ml is 66.5% and 71.7%.
Turning to EggWhite 1101/Promod 258P hydrolysate, the inhibition (%) at 0.0625 mg/ml is 27.9% and 20%; the inhibition (%) at 0.125 mg/ml was 40.3% and 36.2%; the inhibition (%) at 0.25 mg/ml was 45% and 33.9%; the inhibition (%) at 0.5 mg/ml was 62.8% and 47.2%. Moreover, the inhibition (%) at 1 mg/ml was 77.9% and 78.4%.
On to EggWhite 1101/Protex 6L hydrolysate, for which the inhibition (%) at 0.0625 mg/ml was 17% and 11.9%; the inhibition (%) at 0.125 mg/ml was 20.2% and 23%; the inhibition (%) at 0.25 mg/ml was 31.3% and 33.3%; the inhibition (%) at 0.5 mg/ml is 50.6% and 44.4%. The inhibition (%) at 1 mg/ml is 63.2% and 62.2%.
On to EggWhite 1102/Alcalase hydrolysate, for which the inhibition (%) at 0.0625 mg/ml is 18.2% and 2.4%; the inhibition (%) at 0.125 mg/ml was 36.4% and 16.7%; the inhibition (%) at 0.25 mg/ml was 43% and 23.3%; the inhibition (%) at 0.5 mg/ml is 58.8% and 48.1%. In addition, the inhibition (%) at 1 mg/ml was 76.9% and 67%; the inhibition (%) at 2 mg/ml is 86.3% and 65.8%.
For the substance EggWhite 1102/Promod 258P hydrolysate, the inhibition (%) at 0.25 mg/ml is 42.8% and 19.5%; the inhibition (%) at 0.5 mg/ml was 62% and 42.7%; the inhibition (%) at 1 mg/ml was 75% and 61.9%; the inhibition (%) at 2 mg/ml was 91.3% and 76.8%.
Regarding EggWhite 1102/Protex 6L hydrolysate, the inhibition (%) at 0.0625 mg/ml is 16.3% and 4.9%; the inhibition (%) at 0.125 mg/ml is 24.7% and 19%; the inhibition (%) at 0.25 mg/ml was 33.2% and 41.7%; the inhibition (%) at 0.5 mg/ml was 47% and 49.2%. Further, the inhibition (%) at 1 mg/ml is 58.4% and 66%; the inhibition (%) at 2 mg/ml was 60.2% and 71.8%.
With “Lysozyme (Lysozyme C, LYC_CHICK), not hydrolysed and not digested (from UniProt P00698 19-147) (enzyme)”, the ACE inhibition (%) at 0.167 mg/ml, Hip-His-Leu/TNBS microtiter assay was -4.7%.
As to Lysozyme/Alcalase hydrolysate, the ACE inhibition (% inhibition) at 0.5 mg/ml was 70% and 82% and 58%; the inhibition (%) at 0.0625 mg/ml was 35.2% and 14.3%; the inhibition (%) at 0.5 mg/ml is 82.1% and 58.1%; the inhibition (%) at 1 mg/ml was 81.3% and 79.9%. Further, the inhibition (%) at 2 mg/ml was 126% and 102%.
Take Lysozyme/PEM hydrolysate: the ACE inhibition (% inhibition) at 0.5 mg/ml was 56% and 55% and 58%; the inhibition (%) at 0.0625 mg/ml was 29.2% and 27.3%; the inhibition (%) at 0.125 mg/ml was 38% and 35.1%; the inhibition (%) at 0.25 mg/ml was 49.7% and 49.5%. In addition, the inhibition (%) at 0.5 mg/ml was 54.7% and 58%; the inhibition (%) at 2 mg/ml is 102% and 123%.
Lysozyme/PTN hydrolysate: the ACE inhibition (% inhibition) at 0.5 mg/ml was 52% and 62% and 42%; the inhibition (%) at 0.0625 mg/ml was 18.9% and 6.4%; the inhibition (%) at 0.5 mg/ml was 62.4% and 42%; the inhibition (%) at 1 mg/ml is 75.7% and 75.8%. For the same substance, the inhibition (%) at 2 mg/ml is 79.7% and 103%.
As for Lysozyme/Protex 6L hydrolysate, the ACE inhibition (% inhibition) at 0.5 mg/ml was 71% and 74% and 69%; the inhibition (%) at 0.0625 mg/ml was 42.4% and 30.9%; the inhibition (%) at 0.125 mg/ml is 42.2% and 44.6%; the inhibition (%) at 0.25 mg/ml was 65.8% and 58.3%. Further, the inhibition (%) at 0.5 mg/ml was 73.9% and 68.7%; the inhibition (%) at 1 mg/ml was 83% and 83.5%.
For “Ovalbumin hydrolysate (enzyme of the column not resolvable: PEM, Newlase F or Alcalase)”, the inhibition (%) at 0.0625 mg/ml is -6.8% and 0%; the inhibition (%) at 0.125 mg/ml was 0% and 1.6%; the inhibition (%) at 0.25 mg/ml was 17.4% and 13.4%; the inhibition (%) at 0.5 mg/ml is 31.1% and 24.6%. For the same substance, the inhibition (%) at 1 mg/ml was 18.2% and 41.3%; the inhibition (%) at 2 mg/ml was 87.8% and 64.4%.
Regarding Ovalbumin/Alcalase hydrolysate, the inhibition (%) at 0.0625 mg/ml is 23.4% and 3.1%; the inhibition (%) at 0.125 mg/ml was 7.3% and 16.2%; the inhibition (%) at 2 mg/ml was 89.2% and 74.8%.
With Ovalbumin/Newlase F hydrolysate, the inhibition (%) at 0.0625 mg/ml came to 3.7%, the inhibition (%) at 0.125 mg/ml was 16.3%, the inhibition (%) at 0.25 mg/ml was determined as 23.5% and the inhibition (%) at 0.5 mg/ml is 45.8%. Moreover, the inhibition (%) at 1 mg/ml turned out to be 55.9% and the inhibition (%) at 2 mg/ml worked out at 82.5%.
Take Ovalbumin/PEM hydrolysate: the inhibition (%) at 0.5 mg/ml was 51.4% and 27.7%; the inhibition (%) at 1 mg/ml is 57.3% and 36.3%; the inhibition (%) at 2 mg/ml was 61% and 39.1%.
Take Ovalbumin/Promod 258P hydrolysate: the ACE inhibition (% inhibition) at 0.5 mg/ml was 53% and 49% and 58%; the inhibition (%) at 0.0625 mg/ml was 14% and 8.7%; the inhibition (%) at 0.125 mg/ml is 40.7% and 23.2%; the inhibition (%) at 0.25 mg/ml is 37.3% and 33.8%. Moreover, the inhibition (%) at 0.5 mg/ml is 48.6% and 57.6%; the inhibition (%) at 1 mg/ml was 87.5% and 67%; the inhibition (%) at 2 mg/ml is 103% and 78.2%.
Turning to “Ovomucin, not hydrolysed and not digested”, the ACE inhibition (%) at 0.019 mg/ml, Hip-His-Leu/TNBS microtiter assay is -0.4%; the ACE inhibition (%) at 0.056 mg/ml, Hip-His-Leu/TNBS microtiter assay is 5.2%; the ACE inhibition (%) at 0.167 mg/ml, Hip-His-Leu/TNBS microtiter assay is 2.2%; the ACE inhibition (%) at 0.500 mg/ml, Hip-His-Leu/TNBS microtiter assay was found to be 2.1%.

These data come from patent publication US20090029005A1.
